Data set [1] concerns the molecule itself. Description: cryo-EM and cryo-electron tomography of assemblies formed in a cell-free assay; soluble protein alone (CrSAS-6_FL 10 uM or His-Stag-CrSAS-6_NL 20 uM in 20 mM Tris pH 7.5, 150 mM NaCl) dialysed >16 h against 10 mM K-PIPES pH 7.2; structures formed in solution vitrified and imaged.
Data set [2] deals with the molecule itself. Description: negative staining EM of assemblies; CrSAS-6_NL diluted in 10 mM K-PIPES pH 7.0 to 3 ug/ml, deposited on carbon-coated grids, stained with 2% uranyl acetate.

B1: His-Stag-CrSAS-6_NL(1-503) (domain or fragment, Chlamydomonas reinhardtii, UniProt A9CQL4 1-503, looked up)
chain: MPLLLDDGDPKAQTGFDLSTATTLFWRPVPVHVKQQDREDVLEELTFRILTGVAKQNHNLRILRIHISSDSDLFFLHTLEVSEEDFQSLKNDQGILVDFASFPGKIISLLEKCILAQPGDSPRFQAVLTIRGGESVFKIVEINDFKQLPHITLAFRPGNDSVVKQFLAFRLSEVKGTCHDLSDDLSRTRDDRDSMVAQLAQCRQQLAQLREQYDKHLLEVQAQAKTQQASAHEERIREKSQLKDQFEKERGEMEGRYRDQIAALNTRLGELDTENRKLREVKYELDTKVSELSHKLGSSEGSNRSLEEETARLRSLNQQLSSSKHELEIQLNEAKAKVLALDEKAQSQGDVIEQQRGRLRDMEAALRQTEQRCADLRDTLASAEGRAKEAQAEVLKGNQAIEKLTNDLRLAKEKTKRKAAIILRQEEELQEREQSLANATRDVGVLGQQAESLRKDVASLHSENDSLRSKLEDSKQQLQSNEQMIRWLNQQVTEAQLHASGAT
notes: CrSAS-6 (Bld12p) of Chlamydomonas reinhardtii, residues 1-503; C-terminal truncation that keeps the N-terminal domain and the entire coiled coil; This form was used for cryo-EM and cryo-ET; source: E. coli BL21(DE3), purified (Ni-NTA, size exclusion chromatography)
For the protein B1, the binding result in data set [1] was “binds”.

B2: CrSAS-6_NL(1-503), 6xHis tag cleaved (domain or fragment, Chlamydomonas reinhardtii, UniProt A9CQL4 1-503, looked up)
chain: MPLLLDDGDPKAQTGFDLSTATTLFWRPVPVHVKQQDREDVLEELTFRILTGVAKQNHNLRILRIHISSDSDLFFLHTLEVSEEDFQSLKNDQGILVDFASFPGKIISLLEKCILAQPGDSPRFQAVLTIRGGESVFKIVEINDFKQLPHITLAFRPGNDSVVKQFLAFRLSEVKGTCHDLSDDLSRTRDDRDSMVAQLAQCRQQLAQLREQYDKHLLEVQAQAKTQQASAHEERIREKSQLKDQFEKERGEMEGRYRDQIAALNTRLGELDTENRKLREVKYELDTKVSELSHKLGSSEGSNRSLEEETARLRSLNQQLSSSKHELEIQLNEAKAKVLALDEKAQSQGDVIEQQRGRLRDMEAALRQTEQRCADLRDTLASAEGRAKEAQAEVLKGNQAIEKLTNDLRLAKEKTKRKAAIILRQEEELQEREQSLANATRDVGVLGQQAESLRKDVASLHSENDSLRSKLEDSKQQLQSNEQMIRWLNQQVTEAQLHASGAT
notes: CrSAS-6 (Bld12p) of Chlamydomonas reinhardtii, residues 1-503; This form was used for negative staining EM; also called 6xHis-CrSAS-6_NL(1-503) (before cleavage)
For the protein B2, the binding result in data set [2] was “binds”.

B3: full-length CrSAS-6 (HisCrSAS-6_FL) (natural protein, Chlamydomonas reinhardtii, UniProt A9CQL4 1-728, looked up)
chain: MPLLLDDGDPKAQTGFDLSTATTLFWRPVPVHVKQQDREDVLEELTFRILTGVAKQNHNLRILRIHISSDSDLFFLHTLEVSEEDFQSLKNDQGILVDFASFPGKIISLLEKCILAQPGDSPRFQAVLTIRGGESVFKIVEINDFKQLPHITLAFRPGNDSVVKQFLAFRLSEVKGTCHDLSDDLSRTRDDRDSMVAQLAQCRQQLAQLREQYDKHLLEVQAQAKTQQASAHEERIREKSQLKDQFEKERGEMEGRYRDQIAALNTRLGELDTENRKLREVKYELDTKVSELSHKLGSSEGSNRSLEEETARLRSLNQQLSSSKHELEIQLNEAKAKVLALDEKAQSQGDVIEQQRGRLRDMEAALRQTEQRCADLRDTLASAEGRAKEAQAEVLKGNQAIEKLTNDLRLAKEKTKRKAAIILRQEEELQEREQSLANATRDVGVLGQQAESLRKDVASLHSENDSLRSKLEDSKQQLQSNEQMIRWLNQQVTEAQLHASGATVAGSRYAFRPSAALPGSMPPPSVAATPAVGLLAAPGPSTAYKPGGTTSRYASTLGVTGLSSGLSGAGATSVGAAVAGGSYGAGGDSSYRPGVGGAYASSGGAGGFGGSVGGGGQVGGSGSAIGAATGAGSALGTYRSSYAASTHPSPGGVTAGMGSTLTTPAVNRYAAGSYSSVSSSLSFGGGLGAARAVDATPAASKYGVGFSNAAMGVVGTVGGAGGTDAQRA
notes: SAS-6 protein Bld12p (CrSAS-6) of Chlamydomonas reinhardtii, full length; A 6xHis tag stands between the Prescission site and CrSAS-6 and remains after cleavage; also called Bld12p; GST-HisCrSAS-6_FL (before cleavage); source: E. coli BL21(DE3), purified (glutathione agarose beads, eluted with Prescission Protease to remove GST); not shown: GST, N-terminal, cleaved; His6, N-terminal, kept
For the protein B3, the binding result in data set [1] is “binds”.

The record behind these values is publication PMC5376648, “Cell-free reconstitution reveals centriole cartwheel assembly mechanisms” (Nature Communications, 2017).
